Assay results published in article PMC10215190.

Target: recombinant PhaC (PHA synthase Class III) from Arthrospira platensis (Arthrospira platensis)
Test: SEC; Sephadex-G50 column, 100 mM sodium phosphate pH 7.4, 1 mL/min, A280; masses estimated from retention times of standards (alcohol dehydrogenase 150 kDa, BSA 66 kDa, ovalbumin 44 kDa); dimer and monomer peaks both seen

Substance: recombinant PhaC (PHA synthase Class III) from Arthrospira platensis (enzyme)
- stoichiometry N: 2
